Measurements: US20260258115A1 (MAPP BIOPHARMACEUTICAL, published 2026)

Legend:
Assay in all cases: BLI, IgG
[1] = target: T1, RSV postfusion F (postF), subtype A (respiratory syncytial virus, subtype A, UniProt P03420 26-513)
T1 construct: also called F ΔFP; Postfusion subtype A

[2] = target: RSV prefusion F (preF), subtype A (respiratory syncytial virus, subtype A, UniProt P03420 26-513)
[3] = target: RSV prefusion F (preF), subtype B (respiratory syncytial virus, subtype B)

Row | Binder | Kd [1] | Kd [2] | Kd [3] | binding result [1]
1 | ADI-21052 (antibody, V domains shown, also called Ab 300) VH: QVQLVQSGAEVKKPGASVKVSCKASGYTFTSYGISWVRQAPGQGLEWMGWISAYNGNTNYAQNLQGRVTMTTDTSTSTAYMELRSLRSDDTAMYYCARDAFSRVGYWYFDLWGRGTLVTVSS VL: SYELTQPPSVSVAPGQAARITCGGNNIGSKTVHWYQQKPSQAPVLVVYDDSDRPSGIPERFSGSNSGNTATLTISRVEAGDEADYYCQVWDSSGDHPVFGGGTKLTVL | 18.4 nM | 0.126 nM | 0.11 nM | –
2 | ADI-21044 (antibody, V domains shown) VH: QVQLVQSGAELKKPGESLKISCKTSGYTFANYWIGWVRQMPGKGLEWMGIIYPGDSDTRYSPSFQGQVTFSADKSINSAYLQWHSLKASDSAIYYCARRFSPDYSDGAAPPTLSDAFDVWGQGTTVTVSS VL: DIVMTQSPSSLSASVGDRVTITCRASQNINIYLNWYQQKPGKAPKLLIYAASTLQSGVPSRFSGSGSATDFTLTISSLQPEDFATYYCQQSYRTPNDFGRGTKVDIK | – | 4.51 nM | 5.85 nM | no binding
3 | ADI-21059 (antibody, V domains shown) VH: QVQLVQSGAEVKRPGDSLKISCKGSGYSFTTSWIGWVRQVPGKGLEWMGIIYPGDSNTVYGPSLQGQVTISADKSTNTAYLQWSSLKASDTAMYYCARRDGGTDYLSDAFDIWGQGTFVTVSS VL: DIQMTQSPSSLSASVGDRVTITCRTSQNIVIYLNWYQQKPGKAPKLLIFAASSLPSGVPSRFSGSGSGTDFTLTISSLQPEDVATYYCQQSYNTPGTFGQGTKVDIK | – | 3.05 nM | 9.43 nM | no binding
4 | ADI-21045 (antibody, V domains shown) VH: EVQLVESGGGLVKPGGSLRLSCLASGFKFRSYSMNWVRQAPGTGLVWVASISASSSFIFYADSLKGRFTISRDNDKNSLYLQMNSLTVEDTAVYYCVRDMSGISSGGKTFDYWGQGTLVTVSS VL: QSVLTQPPSVSGAPGQRVTISCTGSSSNLGAGYDVQWYQQLPGTAPKLLIYGNNNRPSGVPDRFSGSKSGTSASLAITGLRAEDEADYYCQSYDTSPVFGGGTKLTVL | – | 0.456 nM | 0.596 nM | no binding
5 | ADI-21038 (antibody, V domains shown) VH: QVQLVQSGAEVKKPGESLKISCQGFGFSFTSYWIGWVRQTPGKGLEWMGTIYPGDSETRKSPSIQGQVTFSADRSISTAYLQWSGLTASDTAVYYCARLKGGWGTTMAGIRDYFYYGLDVWGQGTTVTVSS VL: EIVLTQSPGTLSLSPGERATLSCRASQSVSSSYLAWYQQKPGQAPRLLIYGASSRATGIPDRFTGSGSGTDFTLTISRLEPEDFAVYYCQQYATSLGGFTFGPGTKVDIK | 1.45 nM | 2.93 nM | 16 nM | –
6 | ADI-21050 (antibody, V domains shown) VH: QVQLVQSGAEVKKPGASVKVSCTASGYTFANNGISWVRQAPGQGLEWMGWISAYNGNTKYAQTVQGRVTLTTDTSTSTAYMELRSLTSDDTAVYYCAREMGVDAAATFDYWGQGTLVTVSS VL: EIVMTQSPLFLSVTLGQPASISCRSSQSLVYSDTNTYLTWFQQRPGQSPRRLIYKVSNRDSGVPDRFSGSGSGTYFTLKISRVEAEDIGVYYCMQAIHWPRTFGQGTKLEIK | – | 0.362 nM | 0.323 nM | no binding
7 | ADI-21051 (antibody, V domains shown) VH: QVQLVESGPGLVRPSQTLSLTCNVSGDFISRGTYYWSWIRQSAGKGLEWIGRIYTSGITDYSPSLKSRVTISVDTSKNQFFLKLASVTAADTAVYYCARGRGYYDSPWGQGTLVTVSS VL: ETTLTQSPATLSLSPGERATLSCRASESVSTFLGWYQQKPGQAPRLLIYDASNRASGVPARFSGSGSGTDFTLTISSLEPEDFAVYYCQLRNKWLTFGPGTKVDIK | – | 0.292 nM | 0.335 nM | no binding
